In patent US20260217760A1 (Chugai, published 2026):

Columns and labels:
protein A [1] = molecular target: T1, protein A (UniProt P38507 37-327); experiment: rProtein A Sepharose Fast Flow column, stepwise pH elution; fractions analysed by cation exchange chromatography
T1 construct: Immobilised on resin; also called rProtein A Sepharose Fast Flow column (GE Healthcare); HiTrap protein A HP column (GE Healthcare)

protein A [2] = molecular target: T1, protein A; experiment: rProtein A Sepharose Fast Flow column, elution at pH 3.6; cation exchange analysis
protein A [3] = molecular target: T1, protein A; experiment: rProtein A Sepharose Fast Flow column, elution at pH 3.6 and 2.7; cation exchange analysis
protein A [4] = molecular target: T1, protein A; experiment: HiTrap protein A HP column, pH gradient elution
protein A [5] = molecular target: T1, protein A; experiment: HiTrap protein A HP column, pH gradient elution; size exclusion analysis

B1: J142-z72/L180-k (antibody, human IgG4 S228P, kappa)
heavy: QVQLVQSGSELKKPGASVKVSCKASGYTFTDNNMDWVRQAPGQGLEWMGDINTRSGGSIYNEEFQDRVTMTIDKSTGTAYMELSSLRSEDTAVYYCARRRSYGYYHDEWGEGTLVTVSSASTKGPSVFPLAPCSRSTSESTAALGCLVKDYFPEPVTVSWNSGALTSGVHTFPAVLQSSGLYSLSSVVTVPSSSLGTKTYTCNVDHKPSNTKVDKRVESKYGPPCPPCPAPEFLGGPSVFLFPPKPKDTLMISRTPEVTCVVVDVSQEDPEVQFNWYVDGVEVHNAKTKPREEQFNSTYRVVSVLTVLHQDWLNGKEYKCKVSNKGLPSSIEKTISKAKGQPREPQVYTLPPSQEEMTKNQVSLTCLVKGFYPSDIAVEWESNGQPENNYKTTPPVLDSDGSFFLYSRLTVDKSRWQEGNVFSCSVMHEALHNRFTQKSLSLSP
light: DIQMTQSPSSLSASVGDRVTITCKASRNIERNLAWYQQKPGQAPELLIYSASRKESGVPDRFSGSRYGTDFTLTISSLQPEDLATYYCQQYYSPPLTFGGGTKVEIKRTVAAPSVFIFPPSDEQLKSGTASVVCLLNNFYPREAKVQWKVDNALQSGNSQESVTEQDSKDSTYSLSSTLTLSKADYEKHKVYACEVTHQGLSSPVTKSFNRGEC
notes: Homomeric by-product in culture medium of Q153-G4d/J142-z72/L180-k; also called homomeric antibody J142-z72; homomeric antibody against FX
Question: Does B1 bind (protein A [1])?
Answer: no binding

B2: J300-z107/L210-k (antibody, human IgG4 S228P, kappa)
heavy: QVQLVQSGSELKKPGASVKVSCKASGYTFTDNNMDWVRQAPGQGLEWMGDINTRSGGSIYNEEFQDRVIMTVDKSTDTAYMELSSLRSEDTAVYHCARRKSYGYYLDEWGEGTLVTVSSASTKGPSVFPLAPCSRSTSESTAALGCLVKDYFPEPVTVSWNSGALTSGVHTFPAVLQSSGLYSLSSVVTVPSSSLGTQTYTCNVDHKPSNTKVDKRVESKYGPPCPPCPAPEFLGGPSVFLFPPKPKDTLMISRTPEVTCVVVDVSQEDPEVQFNWYVDGVEVHNAKTKPREEQYNSTYRVVSVLTVLHQDWLNGKEYKCKVSNKGLPSSIEKTISKAKGQPREPQVYTLPPSQEEMTKNQVSLTCLVKGFYPSDIAVEWESNGQPENNYKTTPPVLDSDGSFFLYSKLTVDKSRWQEGNVFSCSVMHEALHNRYTQESLSLSP
light: DIQMTQSPSSLSASVGDRVTITCKASRNIERNLAWYQQKPGQAPELLIYSASRKESGVPDRFSGSRYGTDFTLTISSLQPEDIATYYCQQYSSPPLTFGGGTKVEIKRTVAAPSVFIFPPSDEQLKSGTASVVCLLNNFYPREAKVQWKVDNALQSGNSQESVTEQDSKDSTYSLSSTLTLSKADYEKHKVYACEVTHQGLSSPVTKSFNRGEC
notes: also called homomeric antibody J300-z107; homomeric antibody against FX
Question: Does B2 bind (protein A [2])?
Answer: no binding

B3: J142-z73/L180-k (antibody, human IgG4 S228P, kappa)
heavy: QVQLVQSGSELKKPGASVKVSCKASGYTFTDNNMDWVRQAPGQGLEWMGDINTRSGGSIYNEEFQDRVTMTIDKSTGTAYMELSSLRSEDTAVYYCARRRSYGYYHDEWGEGTLVTVSSASTKGPSVFPLAPCSRSTSESTAALGCLVKDYFPEPVTVSWNSGALTSGVHTFPAVLQSSGLYSLSSVVTVPSSSLGTKTYTCNVDHKPSNTKVDKRVESKYGPPCPPCPAPEFLGGPSVFLFPPKPKDTLMISRTPEVTCVVVDVSQEDPEVQFNWYVDGVEVHNAKTKPREEQFNSTYRVVSVLTVLHQDWLNGKEYKCKVSNKGLPSSIEKTISKAKGQPREPQVYTLPPSQEEMTKNQVSLTCLVKGFYPSDIAVEWESNGQPENNYKTTPPVLDSDGSFFLYSRLTVDKSRWQEGNVFSCSVMHEALHNRFTQESLSLSP
light: DIQMTQSPSSLSASVGDRVTITCKASRNIERNLAWYQQKPGQAPELLIYSASRKESGVPDRFSGSRYGTDFTLTISSLQPEDLATYYCQQYYSPPLTFGGGTKVEIKRTVAAPSVFIFPPSDEQLKSGTASVVCLLNNFYPREAKVQWKVDNALQSGNSQESVTEQDSKDSTYSLSSTLTLSKADYEKHKVYACEVTHQGLSSPVTKSFNRGEC
notes: Homomeric by-product in culture medium of Q153-z7/J142-z73/L180-k; also called homomeric antibody J142-z73; homomeric antibody against FX
Question: Does B3 bind (protein A [3])?
Answer: no binding

B4: homomeric antibody having the H chain of the anti-GPC3 antibody (from no6) (antibody)
heavy: DVVMTQSPLSLPVTPGEPASISCRSSQSLVHSNRNTYLHWYLEKPGQSPQLLIYKVSNRFSGVPDRFSGSGSGTDFTLKISRVEAEDVGVYYCSQNTHVPPTFGQGTKLEIKSSASTKGPSVFPLAPSSKSTSGGTAALGCLVKDYFPEPVTVSWNSGALTSGVHTFPAVLQSSGLYSLSSVVTVPSSSLGTQTYICNVNHKPSNTKVDKKVEPKSCDKTHTCPPCPAPEAAGGPSVFLFPPKPKDTLMISRTPEVTCVVVDVSHEDPEVKFNWYVDGVEVHNAKTKPREEQYASTYRVVSVLTVLHQDWLNGKEYKCKVSNKALPAPIEKTISKAKGQPREPQVYTLPPSRKELTKNQVSLTCLVKGFYPSDIAVEWESNGQPENNYKTTPPVLDSDGSFFLYSKLTVDKSRWQQGNVFSCSVMHEALHNRYTQKSLSLSP
light: QVQLVQSGAEVKKPGASVKVSCKASGYTFTDYEMHWIRKPPGKGLEWIGAINPKTGDTAYSQKFKGRVTLTADKSTSTAYMELSSLTSEDTAVYYCTRFYSYTYWGRGTLVTVSSASVAAPSVFIFPPSDEQLKSGTASVVCLLNNFYPREAKVQWKVDNALQSGNSQESVTEQDSKDSTYSLSSTLTLSKADYEKHKVYACEVTHQGLSSPVTKSFNRGEC
notes: also called no6-Gh-H homomer
Question: Does B4 bind (protein A [4])?
Answer: no binding

B5: homomeric antibody NTA4L-G3 (antibody, human IgG1, kappa, L234A L235A, N297A)
heavy: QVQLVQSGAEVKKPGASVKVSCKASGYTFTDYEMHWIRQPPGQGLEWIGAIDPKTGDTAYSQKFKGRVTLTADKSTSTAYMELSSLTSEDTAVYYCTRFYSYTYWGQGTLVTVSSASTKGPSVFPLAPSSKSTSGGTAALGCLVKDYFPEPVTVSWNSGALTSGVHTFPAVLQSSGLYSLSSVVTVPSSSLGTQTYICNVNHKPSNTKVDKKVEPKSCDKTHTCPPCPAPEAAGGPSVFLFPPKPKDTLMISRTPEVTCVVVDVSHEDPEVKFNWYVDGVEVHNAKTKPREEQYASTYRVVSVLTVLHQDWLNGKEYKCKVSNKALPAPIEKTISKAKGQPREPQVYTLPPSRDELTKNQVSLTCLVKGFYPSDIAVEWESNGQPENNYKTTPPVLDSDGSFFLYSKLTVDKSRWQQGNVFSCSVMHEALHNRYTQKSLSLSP
light: DVVMTQSPLSLPVTPGEPASISCRSSQSLVHSNRNTYLHWYLQKPGQSPQLLIYKVSNRFSGVPDRFSGSGSGTDFTLKISRVEAEDVGVYYCSQNTHVPPTFGQGTKLEIKRTVAAPSVFIFPPSDEQLKSGTASVVCLLNNFYPREAKVQWKVDNALQSGNSQESVTEQDSKDSTYSLSSTLTLSKADYEKHKVYACEVTHQGLSSPVTKSFNRGEC
notes: Homomeric by-product; also called NTL4L-G3
Question: Does B5 bind (protein A [5])?
Answer: no binding
